Test results published in paper PMC11153153, “Membraneless channels sieve cations in ammonia-oxidizing marine archaea” (Nature, 2024).

Molecular target: the molecule itself
Assay: cryo-EM structure; electron cryotomography and subtomogram averaging of the S-layer on intact N. maritimus cells; 3.3 Å at the centre of the hexamer, about 4.5 Å at the periphery

B1: Nitrosopumilus maritimus S-layer protein Nmar_1547 (NmSLP) (natural protein)
chain: MAANANLFVSAENSQFDNYMSGPQVIEVVVIDSDINDTDEAKGEPDVTVNGKVLRMVQAVDGNWYGYFADRDQAQIADSTATTADSGLDFGVFCASSSGTAALGFSTTETDGIAIPITIANATATGNGTQTGSSSGGAITTTCAANTLDASTANGTINVVREAKDPVAASGSVSVGQIGLKNGTANSGPNWPFIQLYELNPTGNVVVQYNKGGGVQSTTLTFDTVDQFAELSLDRTVFPRVSQVHATITDLWLNIDPTDEDSWTFATNTKNTTSSFNVDTFYQVFDENGASGGSALTLRTTLSSLMCEDNCVLTLDVDAQSSGTPVVTIQDNGDSILTQLNASSNTNANNASAFGISTETAKLGTGSIPVTITEQGPNSGVFGTYDESDKSVLKITDNAKRGTSASLDYNETPQTILVGFSFASIDIQPVTDEWTSGQEIPVVIVDADQNKNSRADEDLDLNNPDVTLIPALRTGDPFTIDEGGTPSLIFTNGTNGDDSIFDTGAINNTSAGQVGNFTLNINVTRFSSATNITSTESIDTFSKRLISAQTANSSANFDVDFAIIDLGSATLETLKETVVDEDNTAVGFNFFNYDVRSLGADTVSIALLNTTGNILPWVNNDTRNVDKNNAILLVSNSTNSQAYVDLTNAVSDAVYGSTNTDSNVNIGFAMYFTGVGDLAAKEVIVMDFFSFGFTDDGVQSSERFANQIIRIEAEETGDNTSTFEGSLEYVMVNQINIQDAGTFSGITPIADDPSFIVIEDLTDEDAPRVNYNDLGADGVTTPVSDQEEAPSHSGVVSLNADSYKIADTVVITVEDLDLNVDSDLIDIFTVVSDNSKATDDAVGSATTQSLSFGELGRLLDVTFDDVIWSTPDGANNTATGNDSDTCSTELSNAGITDTGLGATGFTLVETGAATGVFVGDFQIPSFWCRVSDTTTTPYTYAGDEETTTGLDIEVNYVDFRDASGEIVEVGDSAGVRANTGSVSLDRTVYPVPFGTIADSSKAANAAPNGRSVFPIHATGITSTIDSTEELPTGDLTIHVRINDPDFDENPAGEDAMDQDNALKISVIRGSDSVVLGYAGASERTGKIDVGGNNGTISNIRSFGEMDEIAPDAGIFELDVNIKFTDGPASAQCNSHDTLYTALDGTTGKADTNRFDDGAASGQEYCILQGDILQVEYTDPADASGDANTVTDSATFDLRNGVLQSDKSVYIIGSDMILTLIEPDFDLDNDSAETYDLDLIEWDSDAATTTMGNKGVTGAAAAFDPEPTDFRETGDSTGIFQIVIEIPESLSNDKLERGEEIILEYTDWGPSGSDYVGDEDEDVNLTIYTSNFGATVELDQKVYSWTDKVYITIVAPDHNFDSDLVDEIGETDSDPIKVSTRGFDLDNYKLVETGTDTGIFTGEVILTGFTAHDADGDGNTGDATGTTSGSGPTDGLLATDDDDGLTVSFEFSEDETIVGSALIRWNIGEVQWLEASYPASGTGVVRVIDPDMNLDPEAVDNFEVDVWSDSDAGGIDLTVTETNEATGIFEGTVFFTTLDESSGHRLRVSEGDTVTAEYEDNTLPDPYTTADELDITATSLIGTVVPPLERAPAANLRTVDAFGNSLDSVSVDQQVQISADLANGQDREQSFAYLVQIQDANGVTVSLAWITGSLSSGQSFSPALSWIPTEAGTYTATAFVWESVDNPTALSPPVSTTVNVS
modifications: 17 N-glycans per monomer on asparagine residues followed by a threonine or serine at the +2 position (positions not given)
B1 was tested, and the “stoichiometry N” value was 6.
